The assay has as its target Stx2a A-subunit (dissociated from recombinant Stx2a) (enterohemorrhagic Escherichia coli …, UniProt P09385 23-319). Description: AlphaScreen or HTRF. The settings on record: both partners purified.

Ends that are not written are not given here.

Stx2a A-subunit (dissociated from recombinant Stx2a), sequence (P09385 23-319): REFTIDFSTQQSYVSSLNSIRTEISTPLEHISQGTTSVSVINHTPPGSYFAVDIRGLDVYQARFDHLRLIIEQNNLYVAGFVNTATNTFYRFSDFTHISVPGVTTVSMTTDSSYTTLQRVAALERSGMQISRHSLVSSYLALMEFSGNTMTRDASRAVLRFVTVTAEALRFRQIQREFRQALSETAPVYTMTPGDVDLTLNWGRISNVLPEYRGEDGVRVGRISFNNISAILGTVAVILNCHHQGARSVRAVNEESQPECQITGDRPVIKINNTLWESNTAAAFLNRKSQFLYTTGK

For the molecule RRRRA-NH2 (source: synthetic peptide) [R4A-mono], the IC50 is 2700 nM.
